Data on two molecules can be found in paper PMC10432269, “Diverse modes of H3K36me3-guided nucleosomal deacetylation by Rpd3S” (Nature, 2023).

Series [1] concerns the molecule itself. As to the kind of experiment: cryo-EM structure; free Rpd3S complex, subunits co-expressed in Sf9 and purified together; stabilised by GraFix (glycerol gradient with 0.15% glutaraldehyde); 3.2 Å overall, local maps 2.7 Å and 3.2 Å.
In series [2] the target is T1, unmodified histone H3 residues 1–10 peptide.
T1 construct: Histone H3 residues 1-10, unmodified; also called H3_(1–10); H3un; source: synthetic peptide
T1 peptide: ARTKQTARKS
In words: ITC; 25 °C, MicroCal PEAQ-ITC; 20 mM Tris 7.5, 50 mM NaCl, 5% glycerol; one set of binding sites model. The note with it: both partners purified. For orientation: Isothermal titration calorimetry measures the heat released or taken up as one component is titrated into another.

No end group written: not given here.

B1: Rco1 (natural protein, S. cerevisiae, UniProt Q04779 1-684, looked up)
chain: MDTSKKDTTRSPSHSNSSSPSSSSLSSSSSKEKKRPKRLSSQNVNYDLKRRKIITSEGIERSFKNEHSNLAVEDNIPEEEPKELLEKDSKGNIIKLNEPSTISEDSKVSVTGLPLNKGPSEKIKRESLWNYRKNLGGQSNNSEMTLVPSKRFTQVPKNFQDLNRNDLKTFLTENMTEESNIRSTIGWNGDIINRTRDREPESDRDNKKLSNIRTKIILSTNATYDSKSKLFGQNSIKSTSNASEKIFRDKNNSTIDFENEDFCSACNQSGSFLCCDTCPKSFHFLCLDPPIDPNNLPKGDWHCNECKFKIFINNSMATLKKIESNFIKQNNNVKIFAKLLFNIDSHNPKQFQLPNYIKETFPAVKTGSRGQYSDENDKIPLTDRQLFNTSYGQSITKLDSYNPDTHIDSNSGKFLICYKCNQTRLGSWSHPENSRLIMTCDYCQTPWHLDCVPRASFKNLGSKWKCPLHSPTKVYKKIHHCQEDNSVNYKVWKKQRLINKKNQLYYEPLQKIGYQNNGNIQIIPTTSHTDYDFNQDFKITQIDENSIKYDFFDKIYKSKMVQKRKLFQFQESLIDKLVSNGSQNGNSEDNMVKDIASLIYFQVSNNDKSSNNKSASKSNNLRKLWDLKELTNVVVPNELDSIQFNDFSSDEIKHLLYLKKIIESKPKEELLKFLNIENPENQSE
notes: Rco1, S. cerevisiae, full length; residues 107-565 (Rco1-A) and 262-358 (Rco1-B) are modelled in the structure; The complex was captured on strep beads by the Strep-tag of Rco1; the tag was then cleaved with TEV protease before anion exchange and SEC; Two copies (Rco1-A, Rco1-B) stand in the Rpd3S complex; also called Rco1-A; Rco1-B; not shown: Strep-tag, N-terminal, cleaved
B1: the binding result in series [1] is on record as “binds”.
For the molecule EDFCSACNQSGSFLCCDTCPKSFHFLCLDPPIDPNNLPKGDWHCNECKFK (domain or fragment, cysteine pairing not given here; also: Zn2+ bound) [PHD1 domain of Rco1], the Kd (commonly the free concentration of one partner at which half of the binding sites on the other are occupied at equilibrium, for simple one-to-one binding) in series [2] is ~39 µM.
